Biological target: purified recombinant human α-synuclein (N-terminal histidine tagged) (human, UniProt P37840 1-140)
Assay: SPR; Biacore 3000; about 1500 RU of α-synuclein amine-coupled to a CM5 chip; peptides in two-fold dilutions (0.20-12.50 µM, in duplicate) injected 3 min at 30 µl/min, then 3 min dissociation; HBS pH 7.4 (10 mM HEPES, 150 mM NaCl, 3 mM EDTA, 0.005% P20); double-referenced; report points 20 s into dissociation (200 s)
Conditions: both partners purified

B1: Tat-βsyn-degron peptide (peptide)
peptide: YGRKKRRQRRRRTKSGVYLVGRRRG
notes: Tat plasma membrane transduction domain (HIV-1 Tat stretch); degron, proteasomal targeting signal; also called α-synuclein knockdown peptide; α-synuclein targeting peptide; source: synthetic peptide (GL Biochem, Shanghai)
  binding result: binds

From PMC7895943 (Communications Biology, 2021)
